# Measured values as given in US20190292266A1 (NAVIGO PROTEINS, published 2019).
# B1: 145-2C11 Fab Fragment (Fab, V domains shown)
# VH: EVQLVESGGGLVQPGKSLKLSCEASGFTFSGYGMHWVRQAPGRGLESVAYITSSSINIKYADAVKGRFTVSRDNAKNLLFLQMNILKSEDTAMYYCARFDWDKNYWGQGTMVTVSS
# VL: DIQMTQSPSSLPASLGDRVTINCQASQDISNYLNWYQQKPGKAPKLLIYYTNKLADGVPSRFSGSGSGRDSSFTISSLESEDIGSYYCQQYYNYPWTFGPGTKLEIKR
# notes: also called PID 38; CD3 specific Fab fragment
# Biological target: T1, CD3 (Example 7)
# T1 construct: Partner of the 145-2C11 Fab and its fusions
# Assay: SPR, biotinylated CD3 on SA chip, Langmuir 1:1
# Protocol: For SPR-analysis of PD1/CD3, a CM5 sensor Chip (GE Healthcare) with immobilized target PD1 (about 800 RU) was prepared. CD3 was 10 times biotinylated and immobilized on SA coupled sensor chip (GE Healthcare) of about 200 RU. Specific binding of biotin and streptavidin provides a strong interaction of the target protein on the chip. Injection of free biotin blocks unbound streptavidin avoiding unspecific interaction during measurement. Determination of dissociation constant and data evaluation was equal to Example 6.
# T1 sequence (P22646 22-108): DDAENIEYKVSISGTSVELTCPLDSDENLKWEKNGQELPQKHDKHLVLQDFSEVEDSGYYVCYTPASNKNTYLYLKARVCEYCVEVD
binder,measurement,value
B1,Kd,13.4 nM
same,koff,0.00296 s⁻¹
same,kon,221000 M⁻¹ s⁻¹
